Source: PMC9046087, “Structural basis of tethered agonism of the adhesion GPCRs ADGRD1 and ADGRF1” (Nature, 2022)
Changes are numbered by the printed parent chain.

B1: G702^4.45bY (protein, UniProt Q5T601 20-910, looked up, variant G702Y)
Adhesion G-protein coupled …: GFLGKNDGIKTKKELIVNKKKHLGPVEEYQLLLQVTYRDSKEKRDLRNFLKLLKPPLLWSHGLIRIIRAKATTDCNSLNGVLQCTCEDSYTWFPPSCLDPQNCYLHTAGALPSCECHLNNLSQSVNFCERTKIWGTFKINERFTNDLLNSSSAIYSKYANGIEIQLKKAYERIQGFESVQVTQFRNGSIVAGYEVVGSSSASELLSAIEHVAEKAKTALHKLFPLEDGSFRVFGKAQCNDIVFGFGSKDDEYTLPCSSGYRGNITAKCESSGWQVIRETCVLSLLEELNKNFSMIVGNATEAAVSSFVQNLSVIIRQNPSTTVGNLASVVSILSNISSLSLASHFRVSNSTMEDVISIADNILNSASVTNWTVLLREEKYASSRLLETLENISTLVPPTALPLNFSRKFIDWKGIPVNKSQLKRGYSYQIKMCPQNTSIPIRGRVLIGSDQFQRSLPETIISMASLTLGNILPVSKNGNAQVNGPVISTVIQNYSINEVFLFFSKIESNLSQPHCVFWDFSHLQWNDAGCHLVNETQDIVTCQCTHLTSFSILMSPFVPSTIFPVVKWITYVGLGISIGSLILCLIIEALFWKQIKKSQTSHTRRICMVNIALSLLIADVWFIVGATVDTTVNPSGVCTAAVFFTHFFYLSLFFWMLMLGILLAYRIILVFHHMAQHLMMAVYFCLGYGCPLIISVITIAVTQPSNTYKRKDVCWLNWSNGSKPLLAFVVPALAIVAVNFVVVLLVLTKLWRPTVGERLSRDDKATIIRVGKSLLILTPLLGLTWGFGIGTIVDSQNLAWHVIFALLNAFQGFFILCFGILLDSKLRQLLFNKLSALSSWKQTEKQNSSDLSAKPKFSKPFNPLQNKGHYAFSHTGDSSDNIMLTQFVSNE
B2: V689^ICL2A (protein, UniProt Q5T601 20-910, looked up, variant V689A)
Adhesion G-protein coupled …: B1 Adhesion G-protein coupled … with V670A, Y683G

Tested on: ADGRF1
Experiment: Cell-surface expression by flow cytometry, ADGRF1
Assay type: cell-based, human
Conditions: anti-Flag antibody, three independent measurements in duplicate
Procedure: The wild-type ADGRD1 and ADGRF1 and mutants used in functional studies were constructed into a pTT5 vector with a Flag tag at the N terminus for receptor expression measurement. The basal activity of ADGRD1 and ADGRF1 in mediating Gs signalling was measured by a cAMP accumulation assay using a LANCE Ultra cAMP detection kit (PerkinElmer) following the manufacturer’s instruction. In brief, 2 ml HEK293F cells (Invitrogen; cells were routinely tested for mycoplasma contamination) at a density of 1.2 × 10^6 cells per ml were transiently transfected with 2,000 ng plasmid of the wild-type or mutant receptor and cultured at 37 °C for 48 h with 5% CO2 atmosphere in a shaker shaking at 220 rpm. After collection, the cell-surface expression of the receptors was measured by incubating 10 μl cells with 15 μl monoclonal anti-Flag M2-FITC antibody (Sigma; 1:120 diluted in TBS supplemented with 4% BSA and 20% viability staining solution 7-AAD (Invitrogen)) at 4 °C for 20 min. After incubation, 175 μl TBS buffer was added and the fluorescent signal was measured using a flow cytometry reader (Guava easyCyte HT, Millipore).

[1] = ADGRF1 constructs (pF1 Gi part of table)

Molecule	Cell-surface expression (% of WT) [1]	Cell-surface expression (% of WT) (ADGRF1 constructs, in parallel to A8-induced Gi activation)	Cell-surface expression (% of WT) (ADGRF1 constructs, in parallel to A8-induced Gs activation)	Cell-surface expression (% of WT) (ADGRF1 constructs, in parallel to pF1-induced Gs activation)
B1	87 ± 12 % of WT	94 ± 1 % of WT	104 ± 2 % of WT	–
B2	112 ± 3 % of WT	–	–	114 ± 10 % of WT
